Experimental data as given in IntAct's records for PubMed 36753016.

Target: ubp18_human USP18 (UniProt Q9UMW8)
Sequence (Q9UMW8 whole entry): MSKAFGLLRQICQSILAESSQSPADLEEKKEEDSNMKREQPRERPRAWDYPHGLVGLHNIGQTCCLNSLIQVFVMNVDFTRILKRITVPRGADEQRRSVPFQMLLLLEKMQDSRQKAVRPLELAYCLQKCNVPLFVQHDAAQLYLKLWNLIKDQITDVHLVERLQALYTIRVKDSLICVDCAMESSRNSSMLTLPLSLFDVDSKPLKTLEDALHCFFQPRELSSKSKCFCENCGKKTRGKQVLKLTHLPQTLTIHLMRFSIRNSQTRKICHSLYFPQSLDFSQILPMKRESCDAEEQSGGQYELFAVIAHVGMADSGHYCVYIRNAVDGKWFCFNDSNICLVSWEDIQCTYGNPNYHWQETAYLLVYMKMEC

- effect of a mutation on the interaction: decreasing interaction strength
Substance: Signal transducer and activator of transcription 2 (Homo sapiens), P52630 A219V
